*1 amine or outer side, *2 acyl side, *3 side chain or, on linkers, in order; H or OH if unused. Where a SMILES comes first, the peptide text is derived from it. [ ]: non-standard residue; d: D form. X1 = C[N+](C)(C)CCOP(=O)([O-])Oc1ccc(/N=N/c2cc(C[C@H](N[*:1])C(=O)[*:2])ccc2O)cc1; X2 = C[N+](C)(C)CCOP(=O)(O)Oc1ccc(/N=N\c2cc(CC(N[*:1])C(=O)[*:2])ccc2O)cc1; NMeT = CN[CH](C(=O)O)[CH](C)O
How the values were obtained:
yeasts (S. cerevisiae) = assay: Yeast fermentation activity (gas formation) in aqueous suspension with sucrose; format: cell-based; settings: FIG. 2
Description: Yeast fermentation activity was correlated to the formation of bubbles within the aqueous suspension.
In brief, varying amount of 1% w/w solution of TRS was added to an aqueous suspension containing yeasts (S. cerevisiae) and a sufficient amount of sucrose, to obtain aqueous compositions containing 4 ppm, 20 ppm, 40 ppm, and 80 ppm of TRS. The gas formation (fermentation activity) of the aqueous suspension with TRS (hereinafter, “the sample”) was quantified by evaluating the volume of the released gas and compared to a similar aqueous yeast suspension devoid of TRS (hereinafter, “the control”).
Further, the phosphorylcholine tuftsin conjugate (PC) of Formula 2A synthesized as disclosed herein, has been tested to evaluate its antifungal activity. The inventors performed a similar experiment, as disclosed above, using varying concentrations of the phosphorylcholine tuftsin conjugate of Formula 2 (i.e. 6.7 ppm, 20 ppm, 40 ppm, and 80 ppm).

[1] = Solubility of drug substance in water; format: physicochemical
Description: Drug Substance [TRS]: is a trifluoroacetate [TFA] salt of phosphorylcholine-tuftsin conjugate represented by Formula 1 (as shown herein). Molecular formula: C43H68N13O13P, Appearance: Yellow to orange solid. Solubility: >40 mg/ml in water.

[2] = Chemical stability of the synthesized conjugates; format: physicochemical
Description: In brief, 50 mg of TRS was dissolved in 2.5 mL of water and 50 equivalents of acetaldehyde were added (at room temperature). Then, the pH was adjusted to 6.8. The solution was shaken over the weekend and analyzed by an analytical HPLC. […] The reaction mixture was purified by a preparative HPLC, to isolate the phosphorylcholine tuftsin conjugate of Formula 3A.
The phosphorylcholine tuftsin conjugate of Formula 3A was dissolved in 0.1% formic acid in water and the pH was adjusted to 2.7. After 30 min, the solution was lyophilized. The crude reaction mixture was purified by preparative HPLC to obtain the phosphorylcholine tuftsin conjugate of Formula 2A.

[3] = Biological activity (test not specified)

## CC(O)C1NC(C)N(C(CCCCN)C(=O)N2CCCC2C(=O)NC(CCCNC(=N)N)C(=O)NCC(=O)NC(Cc2ccc(O)c(N=Nc3ccc(OP(=O)(O)OCC[N+](C)(C)C)cc3)c2)C(=O)O)C1=O (stereo not shown) [Formula 2]
Yeasts (S. cerevisiae); 80 ppm
  yeast activity vs control: almost completely eliminated
Yeasts (S. cerevisiae); lowest concentration of about 7 ppm (6.7 ppm)
  yeast activity vs control: significant reduction of the yeast activity

## C[C@@H](O)[C@H](N)C(=O)N[C@@H](CCCCN)C(=O)N1CCC[C@H]1C(=O)N[C@@H](CCCNC(=N)N)C(=O)NCC(=O)N[C@@H](Cc1ccc(O)c(/N=N/c2ccc(OP(=O)([O-])OCC[N+](C)(C)C)cc2)c1)C(=O)O [TRS] (H-TKPRG[X1]-OH)
[1]
  solubility: > 40 mg/mL

## C/C=N/CCCC[C@@H](C(=O)N1CCCC1C(=O)N[C@@H](CCCNC(=N)N)CNCC(=O)N[C@@H](Cc1ccc(O)c(/N=N/c2ccc(OP(=O)(O)OCC[N+](C)(C)C)cc2)c1)C(=O)O)N1C(=O)C([C@@H](C)O)NC1C (stereo partly shown) [Formula 3A]
[2]; at acidic pH
  hydrolysis (converted into PC of Formula 2A): undergoes hydrolysis

## CNC(C(=O)NC(CCCCN)C(=O)N1CCCC1C(=O)NC(CCCNC(=N)N)C(=O)NCC(=O)NC(Cc1ccc(O)c(/N=N\c2ccc(OP(=O)(O)OCC[N+](C)(C)C)cc2)c1)C(=O)O)C(C)O (stereo not shown) [Formula 5] (H-[NMeT]KPRG[X2]-OH; configuration not given here)
[2]
  chemical stability as compared to PC of Formula 2: reduced chemical stability

## CC1NC([C@@H](C)O)C(=O)N1[C@@H](CCCCN)C(=O)N1CCCC1C(=O)N[C@@H](CCCNC(=N)N)CNCC(=O)N[C@@H](Cc1ccc(O)c(/N=N\c2ccc(OP(=O)(O)OCC[N+](C)(C)C)cc2)c1)C(=O)O (stereo partly shown) [Formula 2A]
[3]
  biological activity: solid biological activity
[2]
  chemical stability: sufficient chemical stability
